In patent publication US20060068386A1, “Complete genome and protein sequence of the hyperthermophile methanopyrus kandleri av19 and monophyly of archael methanogens and methods of use thereof” (priority 2002, published 2006):
Like-named read-outs stand apart in the source and are kept apart here.

Experiments:
M.K. polB DNA polymerase = M.K. polB DNA polymerase (Methanopyrus kandleri, UniProt Q8TWJ5); assay: Effects of media components on M.K. polB DNA polymerase activity (primer extension); format: biochemical
Protocol: (§1) DNA polymerase reaction mixtures (15-20 μl) contained dATP, dTTP, dCTP, and dGTP (1 mM each), 4.5 mM MgCl2, detergents Tween 20 and Nonidet P-40 (0.2% each), fixed concentrations of PTJ—duplex, other additions, as indicated, and appropriate amounts of polB in 30 mM Tris-HCl buffer pH 8.0 (25° C.). The background reaction mixtures contained all components except DNA polymerases. Primer extensions were carried out for a preset time at 75° C. in PTC-150 Minicycler (MJ Research, Inc.; Waltham, Mass.). 5 μl samples were removed and chilled to 4° C. followed by immediate addition of 20 μl of 20 mM EDTA. The samples were desalted by centrifugation through Sephadex G-50 spun columns, diluted, and analyzed on a ABI Prism 377 DNA sequencer (Applied BioSystems; Foster City, Calif.). For each sample, raw data were extracted from the sequencer trace files with the program Chromas 1.5 (Technelysium Pty Ltd., Australia), and the fluorescent signals were analyzed by our nonlinear regression data analysis programs written in Fortran. The programs applied Powell algorithms to approximate the signals by a number of Gaussian peaks and calculate integral fluorescent intensities for each product peak. The total amount of fluorescent products for each time of incubation was determined, and the initial rates of extension were calculated.
(§2) The next two tables (Table 4 and 5) display effects of various media components on M.K. polB DNA polymerase activity. Initial rates of primer extension reaction were measured as described by Pavlov et al., 2002.

[1] = system: Mka PolB 3'-5' exonuclease activity; assay: Effect of salts on 3'-5' exonuclease activity of Mka PolB; format: biochemical, Methanopyrus kandleri
Protocol: (§3) A 3′→5′ exonuclease activity of polB polymerase was measured at the same conditions as in the primer extension assay, except omitting dideoxynucleotides. A fluorescent primer:
Conclusions: • 1. KGlu inhibits the 3′-5′ exonuclease activity of Mka PolB, while NaCl stimulates it. • 2. KGlu, diphosphoglycerate, and Mka PCNA (see below) increase the polymerase activity of PolB. • 3.

polB DNA polymerase = assay: Thermostability of polB DNA polymerase in various media; format: biochemical, Methanopyrus kandleri; conditions: 1 M Betaine, potassium glutamate, 100° C.
Protocol: To determine DNA polymerase activity and thermostability of DNA polymerase polB in various media. Proteins in 25 μl of 20 mM Tris-HCl buffer (pH 8.0 at 25° C.) containing indicated concentrations of salts and betaine were incubated in PTC-150 Minicycler (MJ Research) at 95° C. or 100° C. 4 μl samples were removed at defined times of incubation and assayed for primer extension activity.
The stabilizing effect of betaine is diminished in the presence of organic solvents DMSO and formamide.

[2] = system: DNA duplex of FIG. 16 (PTJ); assay: Initial rates of primer extension reactions in salts (inhibition of polymerases and chimeras by NaCl, KCl, K-Glu); format: biochemical
Protocol: The polymerase activities of the four chimeras were tested by measuring initial rates of primer extension reactions. The reactions were carried out at low concentrations of substrate, when the initial rates were proportional both to total protein and PTJ concentrations. When [PTJ] is much less than Kmapp, the initial rate is determined as in Equation 1: v1=kapp/Kmapp*[Et]*[PTJ]1 Eq. 1 • where Kmapp and kapp are apparent Michaelis and catalytic constants, respectively.
The concentrations of sodium chloride (NaCl), potassium chloride (KCl) and potassium glutamate (K-Glu) were varied to assess inhibition of the Stoffel fragment and KlenTaq, and the four chimeras by salts, and to estimate the effects of the HhH domains.
Experimental values of initial polymerization rates were analyzed by nonlinear regression analysis using Equation 2: [formula] where v and v0 are initial primer extension rates with and without salt, respectively, Ki is the apparent inhibition constant; and α is the cooperativity parameter.
In Table 2, to take into account the activation of Pfu polymerase and the PfuC2 hybrid by KGlu (data entries marked with an asterisk (*), the experimental values of initial polymerization rates were analyzed by nonlinear regression using the Equation 3: [formula]
where v and v0 are initial primer extension rates with and without salt, respectively; Ki is an apparent inhibition constant, α is a parameter of cooperativity, β and γ are parameters of activation. Since γ≅2, it is likely that two ions of Glu^− bind to the Pfu polymerase catalytic domain without inhibiting the polymerase activity.

[3] = system: fluorescent primer *FL-GTAATACGACTCACTATAGGG; assay: 3'→5' exonuclease activity of polB; format: biochemical
Protocol: as §3
was incubated with the enzyme at defined times. Then, the amounts of formed products were calculated, and the initial rates of hydrolysis were found, as in case of primer extension. It is interesting that polB was able to cleave off only 9 nucleotides of the primer, that is, the […] primer was the shortest substrate that polB could process.

[4] = system: fluorescent duplex substrate containing a primer-template junction (PTJ); assay: Primer extension assay of PolB DNA polymerase activity; format: biochemical
[5] = target: T1, M. kandleri AV19 PCNA (MK1030), DNA polymerase sliding clamp
T1 chain: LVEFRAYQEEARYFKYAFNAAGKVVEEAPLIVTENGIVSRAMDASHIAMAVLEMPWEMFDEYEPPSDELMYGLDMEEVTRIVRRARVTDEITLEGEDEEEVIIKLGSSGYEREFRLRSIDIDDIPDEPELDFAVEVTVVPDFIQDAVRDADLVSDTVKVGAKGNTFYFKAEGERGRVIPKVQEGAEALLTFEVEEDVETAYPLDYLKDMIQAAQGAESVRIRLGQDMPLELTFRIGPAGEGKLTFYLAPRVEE

[6] = system: fluorescent duplex substrate containing a primer-template junction (PTJ); assay: Primer extension assay of PolB DNA polymerase activity; format: biochemical; remark: listed apart in the source
Protocol: A primer extension assay was applied with a fluorescent duplex substrate containing a primer-template junction (PTJ). The duplex shown in FIG. 18 was prepared by annealing a 5′-end labeled with fluorescein 20-nt long primer with a 40-nt long template:
as §1, §2
Table 6 illustrates the dependency of initial rates of primer extension for Duplex 2 shown in FIG. 17 on temperature of the reaction. Initial rates of primer extension reaction were measured as described by Pavlov et al., 2002.

Sequence of M.K. polB DNA polymerase (Q8TWJ5 entry or part of it): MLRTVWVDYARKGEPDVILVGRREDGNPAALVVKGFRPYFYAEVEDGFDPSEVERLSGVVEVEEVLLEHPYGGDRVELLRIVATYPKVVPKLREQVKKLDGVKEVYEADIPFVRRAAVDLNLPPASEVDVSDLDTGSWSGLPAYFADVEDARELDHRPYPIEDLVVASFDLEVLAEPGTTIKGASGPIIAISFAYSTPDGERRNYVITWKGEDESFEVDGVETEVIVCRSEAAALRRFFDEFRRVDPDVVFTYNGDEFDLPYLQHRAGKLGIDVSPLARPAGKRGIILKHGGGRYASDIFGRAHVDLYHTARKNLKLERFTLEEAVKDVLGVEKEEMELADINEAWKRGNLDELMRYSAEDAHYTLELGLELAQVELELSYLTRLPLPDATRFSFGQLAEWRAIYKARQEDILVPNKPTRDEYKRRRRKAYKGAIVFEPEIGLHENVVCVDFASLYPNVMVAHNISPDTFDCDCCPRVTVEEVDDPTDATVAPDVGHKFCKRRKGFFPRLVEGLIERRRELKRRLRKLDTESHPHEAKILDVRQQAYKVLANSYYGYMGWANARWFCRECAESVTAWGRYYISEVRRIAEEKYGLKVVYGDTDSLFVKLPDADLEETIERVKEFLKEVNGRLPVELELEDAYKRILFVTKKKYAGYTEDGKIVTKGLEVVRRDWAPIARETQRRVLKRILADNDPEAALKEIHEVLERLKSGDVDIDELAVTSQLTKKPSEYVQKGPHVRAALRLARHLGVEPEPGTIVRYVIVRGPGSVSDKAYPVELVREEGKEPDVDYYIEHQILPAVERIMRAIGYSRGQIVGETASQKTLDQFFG

N [NH4OH]
IC50 (M.K. polB DNA polymerase; M.K. polB DNA polymerase activity, primer extension, read-out: IC50 (Inhibition constants in different media)): < 30 mM

N[C@@H](CCC(=O)[O-])C(=O)[O-].[K+].[K+] [KGlu, potassium glutamate]
effect on 3'-5' exonuclease activity of Mka PolB [1]: inhibits
effect on polymerase activity of PolB (M.K. polB DNA polymerase): increase
increase of polymerase activity of polB (M.K. polB DNA polymerase; 0.8 M of the salt): about twenty-fold

C[N+](C)(C)CC(=O)O [Betaine]
effect on thermostability of polB DNA polymerase (polB DNA polymerase): stabilize specifically polB DNA polymerase

O=C(O)[C@@H](COP(=O)(O)O)OP(=O)(O)O [diphosphoglycerate]
effect on polymerase activity of PolB (M.K. polB DNA polymerase): increase

[Cl-].[Na+] [NaCl, sodium chloride]
effect on 3'-5' exonuclease activity of Mka PolB [1]: stimulates

Taq Polymerase: DNA polymerase from Thermus aquaticus [reference compound]
increase of Ki on substituting KCl with KGlu ([2]; KGlu versus KCl): 4 fold
NaCl concentration at which 20% inhibition of primer extension reaction occurs ([2]; NaCl): about 90 mM

B1: M. kandleri AV19 DNA polymerase family B (Mka PolB) (MK1039) (protein)
chain: LLRTVWVDYARKGEPDVILVGRREDGNPAALVVKGFRPYFYAEVEDGFDPSEVERLSGVVEVEEVLLEHPYGGDRVELLRIVATYPKVVPKLREQVKKLDGVKEVYEADIPFVRRAAVDLNLPPASEVDVSDLDTGSWSGLPAYFADVEDARELDHRPYPIEDLVVASFDLEVLAEPGTTIKGASGPIIAISFAYSTPDGERRNYVITWKGEDESFEVDGVETEVIVCRSEAAALRRFFDEFRRVDPDVVFTYNGDEFDLPYLQHRAGKLGIDVSPLARPAGKRGIILKHGGGRYASDIFGRAHVDLYHTARKNLKLERFTLEEAVKDVLGVEKEEMELADINEAWKRGNLDELMRYSAEDAHYTLELGLELAQVELELSYLTRLPLPDATRFSFGQLAEWRAIYKARQEDILVPNKPTRDEYKRRRRKAYKGAIVFEPEIGLHENVVCVDFASLYPNVMVAHNISPDTFDCDCCPRVTVEEVDDPTDATVAPDVGHKFCKRRKGFFPRLVEGLIERRRELKRRLRKLDTESHPHEAKILDVRQQAYKVLANSYYGYMGWANARWFCRECAESVTAWGRYYISEVRRIAEEKYGLKVVYGDTDSLFVKLPDADLEETIERVKEFLKEVNGRLPVELELEDAYKRILFVTKKKYAGYTEDGKIVTKGLEVVRRDWAPIARETQRRVLKRILADNDPEAALKEIHEVLERLKSGDVDIDELAVTSQLTKKPSEYVQKGPHVRAALRLARHLGVEPEPGTIVRYVIVRGPGSVSDKAYPVELVREEGKEPDVDYYIEHQILPAVERIMRAIGYSRGQIVGETASQKTLDQFFG
nucleotides of the primer cleaved off [3]: 9 nucleotides
shortest substrate that polB could process [3]: 13 nt
resistance to aggressive chemicals [4]: resistant to aggressive chemicals
hydrolysis of the primer annealed to the duplex (3'-5' exonuclease activity of polB) [5]: suppression of hydrolysis of the primer annealed to the duplex
use of dUTP for primer extensions [6]: can use dUTP for primer extensions
Initial Rate of Primer Extension ([6]; 0.5 M NaCl): 0.123 ± 0.003 µM/min
Initial Rate of Primer Extension ([6]; 0.5 M NaCl + PCNA): 0.214 ± 0.014 µM/min
Initial Rate of Primer Extension ([6]; 1 M DPG): 2.17 ± 0.16 µM/min
Initial Rate of Primer Extension ([6]; 1 M KGlu): 2.74 ± 0.18 µM/min
Initial Rate of Primer Extension ([6]; 1 M KGlu, dUTP): 1.82 ± 0.09 µM/min
temperature up to which primers are extended ([6]; Duplex 2 (FIG. 17)): up to 105 °C
Initial Rate of Primer Extension ([6]; Duplex 2 (FIG. 17), 50 °C): 1.01 ± 0.06 µM/min
Initial Rate of Primer Extension ([6]; Duplex 2 (FIG. 17), 55 °C): 1.08 ± 0.09 µM/min
Initial Rate of Primer Extension ([6]; Duplex 2 (FIG. 17), 60 °C): 1.12 ± 0.08 µM/min
Initial Rate of Primer Extension ([6]; Duplex 2 (FIG. 17), 65 °C): 1.23 ± 0.05 µM/min
Initial Rate of Primer Extension ([6]; Duplex 2 (FIG. 17), 70 °C): 1.01 ± 0.07 µM/min
Initial Rate of Primer Extension ([6]; Duplex 2 (FIG. 17), 75 °C): 0.95 ± 0.07 µM/min
Initial Rate of Primer Extension ([6]; Duplex 2 (FIG. 17), 80 °C): 0.92 ± 0.07 µM/min
Initial Rate of Primer Extension ([6]; Duplex 2 (FIG. 17), 85 °C): 0.94 ± 0.07 µM/min
Initial Rate of Primer Extension ([6]; Duplex 2 (FIG. 17), 90 °C): 0.71 ± 0.05 µM/min
Initial Rate of Primer Extension ([6]; Duplex 2 (FIG. 17), 95 °C): 0.62 ± 0.04 µM/min
Initial Rate of Primer Extension ([6]; Duplex 2 (FIG. 17), 100 °C): 0.62 ± 0.06 µM/min
Initial Rate of Primer Extension ([6]; Duplex 2 (FIG. 17), 105 °C): 0.55 ± 0.09 µM/min

B2: Pfu polymerase: whole size Pfu polymerase (protein, UniProt P61875 1-775, looked up)
chain: MILDVDYITEEGKPVIRLFKKENGKFKIEHDRTFRPYIYALLRDDSKIEEVKKITGERHGKIVRIVDVEKVEKKFLGKPITVWKLYLEHPQDVPTIREKVREHPAVVDIFEYDIPFAKRYLIDKGLIPMEGEEELKILAFDIETLYHEGEEFGKGPIIMISYADENEAKVITWKNIDLPYVEVVSSEREMIKRFLRIIREKDPDIIVTYNGDSFDFPYLAKRAEKLGIKLTIGRDGSEPKMQRIGDMTAVEVKGRIHFDLYHVITRTINLPTYTLEAVYEAIFGKPKEKVYADEIAKAWESGENLERVAKYSMEDAKATYELGKEFLPMEIQLSRLVGQPLWDVSRSSTGNLVEWFLLRKAYERNEVAPNKPSEEEYQRRLRESYTGGFVKEPEKGLWENIVYLDFRALYPSIIITHNVSPDTLNLEGCKNYDIAPQVGHKFCKDIPGFIPSLLGHLLEERQKIKTKMKETQDPIEKILLDYRQKAIKLLANSFYGYYGYAKARWYCKECAESVTAWGRKYIELVWKELEEKFGFKVLYIDTDGLYATIPGGESEEIKKKALEFVKYINSKLPGLLELEYEGFYKRGFFVTKKRYAVIDEEGKVITRGLEIVRRDWSEIAKETQARVLETILKHGDVEEAVRIVKEVIQKLANYEIPPEKLAIYEQITRPLHEYKAIGPHVAVAKKLAAKGVKIKPGMVIGYIVLRGDGPISNRAILAEEYDPKKHKYDAEYYIENQVLPAVLRILEGFGYRKEDLRYQKTRQVGLTSWLNIKKS
modifications: full-length
Ki ([2]; inhibition by KCl, read-out: Ki (KCl), apparent inhibition constant): 42.6 ± 1 mM
Ki ([2]; inhibition by NaCl, nonlinear regression Eq. 2, read-out: Ki (NaCl), apparent inhibition constant): 51.5 ± 1 mM
